Test results as given in article doi:10.1101/827691.

Target: α1-subCD3 as used in cross-linking and NMR (apparent molecular weight 27 kDa) (human) (UniProt P05023)
Experiment: cross-linking

N-terminally His6-tagged FGF2 (18 kDa isoform), wild type (from UniProt P09038-2 1-155) (natural protein)
stoichiometry N (FGF2 per α1-subCD3): 1
